This passage reports enrichment results from publication PMC8473724.

What all share (assay): anti-FLAG co-immunoprecipitation, SILAC LC-MS
Common to all, as to conditions: chain shown with the change; Ramos PTP1B KO cells; n = 3; read off a plot; scale: log10 SILAC ratio

For one test, the target named is T1, PLCγ1, P19174.
T1 chain: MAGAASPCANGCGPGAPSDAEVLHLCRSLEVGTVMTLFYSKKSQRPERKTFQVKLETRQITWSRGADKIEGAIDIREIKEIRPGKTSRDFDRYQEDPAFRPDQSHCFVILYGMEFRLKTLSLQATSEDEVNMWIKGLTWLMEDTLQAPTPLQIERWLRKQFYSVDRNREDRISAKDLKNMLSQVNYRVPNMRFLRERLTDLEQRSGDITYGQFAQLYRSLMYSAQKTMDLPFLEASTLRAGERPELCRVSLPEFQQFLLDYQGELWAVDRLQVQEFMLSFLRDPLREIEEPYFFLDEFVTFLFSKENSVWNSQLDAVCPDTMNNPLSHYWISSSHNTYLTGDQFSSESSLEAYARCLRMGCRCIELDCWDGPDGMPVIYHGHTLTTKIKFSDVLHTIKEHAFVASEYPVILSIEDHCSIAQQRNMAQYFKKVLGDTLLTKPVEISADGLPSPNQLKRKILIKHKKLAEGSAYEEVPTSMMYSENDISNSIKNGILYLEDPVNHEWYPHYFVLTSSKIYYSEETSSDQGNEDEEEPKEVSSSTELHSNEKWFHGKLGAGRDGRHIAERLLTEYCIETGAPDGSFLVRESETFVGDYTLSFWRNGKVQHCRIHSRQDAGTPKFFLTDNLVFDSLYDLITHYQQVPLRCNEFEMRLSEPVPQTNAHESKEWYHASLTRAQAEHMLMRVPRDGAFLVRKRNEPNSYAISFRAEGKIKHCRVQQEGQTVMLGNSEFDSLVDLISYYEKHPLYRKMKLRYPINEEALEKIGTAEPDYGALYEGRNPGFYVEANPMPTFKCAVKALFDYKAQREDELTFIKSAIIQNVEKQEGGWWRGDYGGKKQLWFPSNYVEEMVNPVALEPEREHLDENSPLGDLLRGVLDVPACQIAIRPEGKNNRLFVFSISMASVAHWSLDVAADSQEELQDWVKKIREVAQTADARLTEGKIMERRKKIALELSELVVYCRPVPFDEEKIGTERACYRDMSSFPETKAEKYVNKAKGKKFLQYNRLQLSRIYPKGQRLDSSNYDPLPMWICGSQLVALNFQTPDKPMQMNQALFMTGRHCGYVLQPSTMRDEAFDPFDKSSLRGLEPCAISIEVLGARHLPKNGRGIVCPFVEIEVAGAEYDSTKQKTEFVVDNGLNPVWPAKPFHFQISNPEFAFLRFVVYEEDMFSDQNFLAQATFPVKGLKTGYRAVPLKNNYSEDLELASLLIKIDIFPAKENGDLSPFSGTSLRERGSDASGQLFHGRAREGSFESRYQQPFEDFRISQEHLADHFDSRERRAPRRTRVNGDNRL

The target in a further test is T2, PLCγ2, P16885.
T2 chain: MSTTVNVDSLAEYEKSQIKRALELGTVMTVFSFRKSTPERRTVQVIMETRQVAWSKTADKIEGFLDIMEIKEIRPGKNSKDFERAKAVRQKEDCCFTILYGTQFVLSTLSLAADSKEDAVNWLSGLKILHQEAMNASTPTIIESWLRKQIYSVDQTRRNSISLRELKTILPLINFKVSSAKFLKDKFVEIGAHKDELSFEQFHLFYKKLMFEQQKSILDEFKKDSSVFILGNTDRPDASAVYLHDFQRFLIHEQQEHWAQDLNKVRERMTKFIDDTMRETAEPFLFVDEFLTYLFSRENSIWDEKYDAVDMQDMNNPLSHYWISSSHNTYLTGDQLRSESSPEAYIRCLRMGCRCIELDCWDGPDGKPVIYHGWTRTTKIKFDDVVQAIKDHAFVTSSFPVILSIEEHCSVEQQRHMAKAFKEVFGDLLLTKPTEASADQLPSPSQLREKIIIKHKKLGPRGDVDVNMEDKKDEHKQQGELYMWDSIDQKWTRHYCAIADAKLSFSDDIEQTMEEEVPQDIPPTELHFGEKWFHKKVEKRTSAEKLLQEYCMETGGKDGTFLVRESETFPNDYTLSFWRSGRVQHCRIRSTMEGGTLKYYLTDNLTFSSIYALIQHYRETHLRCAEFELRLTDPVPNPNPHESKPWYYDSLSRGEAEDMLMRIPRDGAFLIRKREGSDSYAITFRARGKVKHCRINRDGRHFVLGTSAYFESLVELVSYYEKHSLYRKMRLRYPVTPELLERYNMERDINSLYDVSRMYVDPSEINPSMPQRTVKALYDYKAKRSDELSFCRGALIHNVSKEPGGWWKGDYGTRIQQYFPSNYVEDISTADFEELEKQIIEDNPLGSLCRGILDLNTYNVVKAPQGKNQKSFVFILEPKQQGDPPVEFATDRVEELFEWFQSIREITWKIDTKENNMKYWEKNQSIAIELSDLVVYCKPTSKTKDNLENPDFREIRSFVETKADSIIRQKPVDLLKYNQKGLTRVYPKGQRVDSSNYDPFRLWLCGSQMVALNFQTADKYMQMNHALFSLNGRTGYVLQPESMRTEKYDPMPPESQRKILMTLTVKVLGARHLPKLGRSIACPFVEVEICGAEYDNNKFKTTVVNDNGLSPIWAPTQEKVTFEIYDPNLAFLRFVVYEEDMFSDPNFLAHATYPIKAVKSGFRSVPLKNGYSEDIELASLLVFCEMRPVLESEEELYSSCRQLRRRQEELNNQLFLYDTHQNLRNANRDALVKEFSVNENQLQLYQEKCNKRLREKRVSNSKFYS

The target of test [1] is T3, epidermal growth factor receptor substrate 15-like 1 (EPS15L1), Q9UBC2.
T3 chain: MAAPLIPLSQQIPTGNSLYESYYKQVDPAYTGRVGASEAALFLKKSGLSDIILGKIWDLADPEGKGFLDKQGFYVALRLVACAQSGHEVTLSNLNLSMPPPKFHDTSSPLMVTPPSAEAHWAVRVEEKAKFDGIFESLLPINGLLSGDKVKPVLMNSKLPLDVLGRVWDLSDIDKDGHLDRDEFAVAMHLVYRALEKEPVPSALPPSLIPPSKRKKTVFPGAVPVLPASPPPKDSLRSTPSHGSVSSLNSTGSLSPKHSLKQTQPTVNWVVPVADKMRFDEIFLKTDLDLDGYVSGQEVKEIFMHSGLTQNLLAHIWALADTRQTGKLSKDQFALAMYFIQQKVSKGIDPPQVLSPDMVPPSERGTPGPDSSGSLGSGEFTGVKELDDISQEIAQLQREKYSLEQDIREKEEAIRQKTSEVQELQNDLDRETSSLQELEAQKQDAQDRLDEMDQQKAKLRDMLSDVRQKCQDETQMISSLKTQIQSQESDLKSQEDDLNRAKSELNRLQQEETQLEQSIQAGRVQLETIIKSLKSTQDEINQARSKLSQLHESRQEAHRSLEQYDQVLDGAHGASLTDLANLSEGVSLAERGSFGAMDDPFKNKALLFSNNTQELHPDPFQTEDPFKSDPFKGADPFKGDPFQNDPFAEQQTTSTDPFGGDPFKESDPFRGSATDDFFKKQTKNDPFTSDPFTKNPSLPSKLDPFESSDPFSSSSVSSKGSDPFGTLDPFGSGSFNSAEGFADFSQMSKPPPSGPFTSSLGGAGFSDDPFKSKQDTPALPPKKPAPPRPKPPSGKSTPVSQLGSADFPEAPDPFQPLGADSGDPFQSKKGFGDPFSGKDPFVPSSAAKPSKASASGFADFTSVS

Test [2] concerns the target T4, intersectin-2 (ITSN2), Q9NZM3.
T4 chain: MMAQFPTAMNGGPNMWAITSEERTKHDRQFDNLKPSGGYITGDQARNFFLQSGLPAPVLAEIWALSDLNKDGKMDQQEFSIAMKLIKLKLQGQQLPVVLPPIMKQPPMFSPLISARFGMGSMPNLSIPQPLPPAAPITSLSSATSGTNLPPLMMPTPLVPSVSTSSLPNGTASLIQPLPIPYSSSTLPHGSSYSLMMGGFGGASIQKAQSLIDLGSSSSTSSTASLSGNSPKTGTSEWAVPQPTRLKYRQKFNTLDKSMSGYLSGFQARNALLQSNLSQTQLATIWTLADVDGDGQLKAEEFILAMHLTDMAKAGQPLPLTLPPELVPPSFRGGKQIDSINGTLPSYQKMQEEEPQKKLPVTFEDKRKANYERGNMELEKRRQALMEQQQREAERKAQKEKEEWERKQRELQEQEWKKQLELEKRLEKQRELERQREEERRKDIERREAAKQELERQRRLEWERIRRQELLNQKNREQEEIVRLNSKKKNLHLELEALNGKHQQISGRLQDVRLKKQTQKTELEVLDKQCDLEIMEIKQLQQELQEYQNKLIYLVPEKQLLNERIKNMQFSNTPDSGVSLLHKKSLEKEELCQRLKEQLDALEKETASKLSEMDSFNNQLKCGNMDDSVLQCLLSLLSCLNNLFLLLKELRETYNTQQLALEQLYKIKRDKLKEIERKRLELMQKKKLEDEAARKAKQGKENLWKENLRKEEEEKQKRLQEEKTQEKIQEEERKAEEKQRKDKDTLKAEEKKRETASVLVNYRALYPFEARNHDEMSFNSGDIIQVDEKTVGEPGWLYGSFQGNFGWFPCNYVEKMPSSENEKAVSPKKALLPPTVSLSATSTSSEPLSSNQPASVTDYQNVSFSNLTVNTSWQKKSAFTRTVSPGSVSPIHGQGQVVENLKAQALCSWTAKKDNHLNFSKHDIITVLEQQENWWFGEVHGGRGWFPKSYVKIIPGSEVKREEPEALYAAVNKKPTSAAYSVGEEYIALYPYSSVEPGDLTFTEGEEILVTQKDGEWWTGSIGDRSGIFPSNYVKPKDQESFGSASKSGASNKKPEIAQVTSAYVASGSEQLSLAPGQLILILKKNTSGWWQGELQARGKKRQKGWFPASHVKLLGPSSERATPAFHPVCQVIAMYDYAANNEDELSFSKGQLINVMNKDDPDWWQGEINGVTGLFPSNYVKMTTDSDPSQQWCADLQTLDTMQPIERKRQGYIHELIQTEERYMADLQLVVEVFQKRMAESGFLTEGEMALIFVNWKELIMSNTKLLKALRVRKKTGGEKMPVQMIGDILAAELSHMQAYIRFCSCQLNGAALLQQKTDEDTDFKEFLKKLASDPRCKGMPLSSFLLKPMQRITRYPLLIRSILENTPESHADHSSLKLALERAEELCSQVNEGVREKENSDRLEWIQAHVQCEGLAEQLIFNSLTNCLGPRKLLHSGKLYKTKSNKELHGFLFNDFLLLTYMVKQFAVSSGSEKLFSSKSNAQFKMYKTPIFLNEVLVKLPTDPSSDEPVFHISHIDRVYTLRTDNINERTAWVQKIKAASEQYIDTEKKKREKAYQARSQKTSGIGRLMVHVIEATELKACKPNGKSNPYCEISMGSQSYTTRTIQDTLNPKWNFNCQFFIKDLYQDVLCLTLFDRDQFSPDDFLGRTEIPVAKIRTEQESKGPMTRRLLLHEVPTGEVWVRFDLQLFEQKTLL

Test [3] concerns the target E3 ubiquitin-protein ligase CBL, P22681.
For test [4], the target named is amyloid-like protein 2 (APLP2), Q06481.
Test [5] concerns the target growth factor receptor-bound protein 2 (GRB2), P62993.

amyloid-like protein 2 (APLP2), Q06481, sequence (Q06481 32-763): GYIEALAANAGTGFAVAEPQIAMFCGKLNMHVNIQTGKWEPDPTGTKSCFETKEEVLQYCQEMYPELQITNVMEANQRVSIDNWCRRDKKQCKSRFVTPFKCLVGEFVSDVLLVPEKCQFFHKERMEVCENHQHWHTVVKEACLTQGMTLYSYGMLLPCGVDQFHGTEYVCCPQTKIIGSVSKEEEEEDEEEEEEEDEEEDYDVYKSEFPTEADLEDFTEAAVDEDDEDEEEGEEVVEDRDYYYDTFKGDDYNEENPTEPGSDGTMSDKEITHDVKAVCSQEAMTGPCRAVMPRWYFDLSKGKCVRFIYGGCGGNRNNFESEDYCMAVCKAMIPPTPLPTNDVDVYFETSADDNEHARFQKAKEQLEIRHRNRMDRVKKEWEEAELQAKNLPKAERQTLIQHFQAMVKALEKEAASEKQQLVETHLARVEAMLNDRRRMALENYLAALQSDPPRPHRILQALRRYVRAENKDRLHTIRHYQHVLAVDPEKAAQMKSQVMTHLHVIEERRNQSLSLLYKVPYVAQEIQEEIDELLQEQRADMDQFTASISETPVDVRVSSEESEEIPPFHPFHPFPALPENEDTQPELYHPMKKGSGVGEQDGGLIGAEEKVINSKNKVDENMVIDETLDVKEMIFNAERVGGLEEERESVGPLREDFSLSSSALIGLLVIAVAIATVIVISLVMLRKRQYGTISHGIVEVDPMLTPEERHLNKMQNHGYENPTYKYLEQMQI

B1: D181A; Y46F (protein)
chain: MEMEKEFEQIDKSGSWAAIYQDIRHEASDFPCRVAKLPKNKNRNRFRDVSPFDHSRIKLHQEDNDYINASLIKMEEAQRSYILTQGPLPNTCGHFWEMVWEQKSRGVVMLNRVMEKGSLKCAQYWPQKEEKEMIFEDTNLKLTLISEDIKSYYTVRQLELENLTTQETREILHFHYTTWPAFGVPESPASFLNFLFKVRESGSLSPEHGPVVVHCSAGIGRSGTFCLADTCLLLMDKRKDPSSVDIKKVLLEMRKFRMGLIQTADQLRFSYLAVIEGAKFIMGDSSVQDQWKELSHEDLEPPPEHIPPPPRPPKRILEPHNGKCREFFPNHQWVKEETQEDKDCPIKEEKGSPLNAAPYGIESMSQDTEVRSRVVGGSLRGAQAASPAKGEPSLPEKDEDHALSY
B1: the enrichment in the test with PLCγ1, P19174 was found to be 0.87; in the test with PLCγ2, P16885 it was 0.48; in test [1] it was 0.59; in test [2] it was 0.62; in test [3] it was 0.74; in test [4], 1.3. Also, the enrichment in test [5] stood at 0.87.
